In general, Kd refers to the concentration at which binding is half-saturated. Lower therefore signals a tighter complex. What is called koff is the rate constant with which the complex falls apart. The low end stands for a long-lived complex, the high end for a short-lived complex. The kon is the second-order rate constant of association. A low value points to slow association.

Consider ten molecules from US20050058649A1 (published 2005).

Assay [1] concerns the target T1, phospholipase A2 (PLA2) (Homo sapiens (Human), UniProt O15496 43-165).
T1 sequence: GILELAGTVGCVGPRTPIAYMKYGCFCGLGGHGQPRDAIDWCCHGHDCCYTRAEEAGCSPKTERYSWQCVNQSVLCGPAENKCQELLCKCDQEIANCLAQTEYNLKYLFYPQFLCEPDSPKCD
Description: cell-based or functional assay.

The target of assay [2] is T1, phospholipase A2 (PLA2). Description: Biacore 2000, captured Ab, global 1:1 fit. The method, then: (§1) In the immobilization, HBS-P was used as the running buffer; in the binding studies, HBS-P, with 12 mg/mL of each BSA and dextran, was used as sample and running buffers.
Data were normalized based on the individual antibody capture levels and fit globally to a 1:1 interaction model.
In general terms: In SPR one partner is held on a chip, and binding of the other changes the refractive index at the surface.

The target in assay [3] is T1, phospholipase A2 (PLA2). Description: Biacore 2000, Ab captured from supernatant, 300 nM PLA2. How it is done:
as §1
Briefly, antibody supernatants were diluted 1/10 and antibodies were captured individually on the IgG surfaces. After a one-minute wash step, buffer and PLA2 (300 nM) were injected serially (one-minute association, five minute dissociation) over each surface. Capture levels were measured from −20 to 0 seconds and the surfaces were regenerated with a 6-second pulse of 100 mM H₃PO₄.

B1: anti-PLA2 mAb 1.18 (antibody, IgG2, V domains shown)
VH: EVQLVQSGAEVKKPGESLKISCKGSGYSFTNYWINWVRQMPGKGLEWMGIIYPGDSDTRYSPSFQGQVTISADKSISTAYLQWSSLKASDTAMYYCARHRLGFDYWGQGTLVTVSS
VL: DIQMTQSPSSLSASVGDRVTITCRASQGIRNDLDWCQQKPGKAPKRLIYAASSLQSGVPSRFSGSGSGTEFTLTISSLQPEDFATYYCLQHNNYPPTFGQGTKVEIKR
For B1, the “IC50 of inhibition of PLA2 enzyme activity (12-point dose curve)” value (“IC50 of inhibition … (12-point dose curve)” for short) with phospholipase A2 (PLA2) [1] turned out to be 0.78 nM. Besides, in the assay with phospholipase A2 (PLA2) [2], binding was put at a Kd of 50 nM, the koff amounted to 0.00192 s⁻¹ and the kon is 38600 M⁻¹ s⁻¹. The molecule also returned a Response with phospholipase A2 (PLA2) [3] of 6 RU.

B2: anti-PLA2 mAb 1.21 (antibody, IgG2, V domains shown)
VH: EVQLVQSGAEVKKPGESLKISCKGSGYRFTSYWISWVRQMPGKGLEWMGIIYPGDSDTRYSPSFQGQVTISADKSISTAYLQWSSLKASDTAMYYCARHREAFDIWGQGTMVTVSS
VL: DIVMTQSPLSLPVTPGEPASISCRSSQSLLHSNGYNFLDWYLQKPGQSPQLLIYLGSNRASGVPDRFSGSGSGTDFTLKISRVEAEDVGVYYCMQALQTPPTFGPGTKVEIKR
Take B2: the “IC50 of inhibition … (12-point dose curve)” value in the assay with phospholipase A2 (PLA2) [1] came out at 3.64 nM. In the assay with phospholipase A2 (PLA2) [2], this molecule came in with a Kd of 11 nM, a koff of 0.00063 s⁻¹ and a kon of 57100 M⁻¹ s⁻¹. The Response in the assay with phospholipase A2 (PLA2) [3] came out at 61 RU.

B3: anti-PLA2 mAb 2.7 (antibody, IgG4, V domains shown)
VH: GVQLVQSGAEVKKPGESLKISCKGSGYSFTNYWIGWVRQMPGKGLEWMGIIYPGDSDTRYSPSFQGQVTISADKSISTAYLQWSSLKASDTAIYYCARGGVGAFDIWGQGTMVTVSS
VL: EIVLTQSPGTLSLSPGERATLSCRASQIIRRSSLAWYQEKPGQAPRLLIYGASSRATGIPDRFSGSGSGTDFTLTISRLEPEDFAVYYCQQYGSSPPFTFGPGTKVDIKR
notes: also called 2.7.1
As for B3, in the assay with phospholipase A2 (PLA2) [2], binding was characterised by a dissociation constant (Kd) of 10 nM, the koff is 0.00104 s⁻¹ and the kon was 99600 M⁻¹ s⁻¹. Besides, the Response in the assay with phospholipase A2 (PLA2) [3] worked out at 126 RU.

B4: anti-PLA2 mAb 1.27 (antibody, IgG2, V domains shown)
VH: EVQLVQSGAEVKKPGESLKISCKGSGYSFTSYWIGWVRQMPGKGLEWMGIIYPGDSDTRYSPSFQGQVTISADKSISTAYLQWSSLKASDTAMYYCARSWTYGMDVWGQGTTVTVSS
VL: EIVLTQSPGTLSLSPGERATLSCRASQSVRSNYLTWYQQKPGQAPRLLIYGASTRATGIPDRFSGSGSGTDFTLTISRLEPEDFAVYYCQQYGSSPLTFGGGTKVEIKR
As for B4, in the assay with phospholipase A2 (PLA2) [1], the “IC50 of inhibition … (12-point dose curve)” value worked out at 9.4 nM. In addition, in the assay with phospholipase A2 (PLA2) [2], the dissociation constant Kd is 27 nM, the koff was 0.000922 s⁻¹ and the association rate constant (kon) stood at 34500 M⁻¹ s⁻¹. The molecule further showed a Response in the assay with phospholipase A2 (PLA2) [3] of 78 RU.

B5: anti-PLA2 mAb 1.14 (antibody, IgG2, V domains shown)
VH: EVQLVQSGAEVKKPGESLKISCKGSGYSITSYWIGWVRQMPGKGLEWMGIIYPGDSDTRYSPSFQGQVTISADKSISTAYLQWSSLKASDTAMYYCARHSGSSFDYWGQGTLVTVSS
VL: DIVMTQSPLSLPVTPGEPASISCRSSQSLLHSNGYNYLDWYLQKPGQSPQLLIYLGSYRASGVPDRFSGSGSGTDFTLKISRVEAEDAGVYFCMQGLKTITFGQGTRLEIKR
With B5, the “IC50 of inhibition … (12-point dose curve)” value with phospholipase A2 (PLA2) [1] turned out to be 3.9 nM. In the assay with phospholipase A2 (PLA2) [2], this molecule showed a Kd of 18 nM, a koff of 0.000791 s⁻¹ and a kon of 43900 M⁻¹ s⁻¹. For the same molecule, the Response with phospholipase A2 (PLA2) [3] turned out to be 74 RU.

B6: anti-PLA2 mAb 1.5 (antibody, IgG2, V domains shown)
VH: EVQLVQSGAEVKKPGESLKISCKGSGYSFISYWIGWVRQMPGKGLEWMGIIYPGDSDTRYSPSFQGQVTISADKSISTAYLQWSSLKASDTAMYYCARHWSYGMDVWGQGTTVTVSS
VL: EIVLTQSPGTLSLSPGERATLSCRASQSVRSGYLAWYQQRPGQAPRFLIYGASSRATGIPDRFSGSGSGTDFTLTISRLEPEDFAVYYCQQYGSSPLTFGGGTKVEIKR
notes: also called 1.5.1
Consider B6, for which the “IC50 of inhibition … (12-point dose curve)” value with phospholipase A2 (PLA2) [1] amounted to 2.36 nM. In the assay with phospholipase A2 (PLA2) [2], this molecule returned a Kd of 15 nM, a koff of 0.000713 s⁻¹ and a kon of 48700 M⁻¹ s⁻¹. The molecule further had a Response in the assay with phospholipase A2 (PLA2) [3] of 70 RU.

B7: anti-PLA2 mAb 1.7 (antibody, IgG2, V domains shown)
VH: EVQLVQSGAEVKKPGESLKISCKGSGYSFISYWIGWVRQMPGKGLEWMGIIYPGDSDTRYSPSFQGQVTISADKSISTAYLQWSSLKASDTAMYYCARSWTYALDVWGQGTAVTVSS
VL: EIVLTQSPGTLSLSPGERATLSCRPSQSVRSNYLTWYQQKPGQAPRLLIYGASTRATGIPDRFSGSGSGTDFTLTVSRLEPEDFAVYYCQQYGSSPLTFGGGTKVEIKR
notes: also called 1.7.1
B7: the “IC50 of inhibition … (12-point dose curve)” value with phospholipase A2 (PLA2) [1] came out at 4.73 nM. In the assay with phospholipase A2 (PLA2) [2], this molecule yielded a Kd of 9.5 nM, a koff of 0.000451 s⁻¹ and a kon of 47400 M⁻¹ s⁻¹. The same molecule came in with a Response in the assay with phospholipase A2 (PLA2) [3] of 118 RU.

B8: anti-PLA2 mAb 2.19 (antibody, IgG4, V domains shown)
VH: QVQLVESGGGVVQPGRSLRLSCAASGFTFSSYGMHWVRQAPGKGLEWVAAIWYDGSNKWYADSVKGRFTISRDNSKNTLYLQMNSLRAEDTAVYYCARGGTGTPGAFDIWGQGTMVTVSS
VL: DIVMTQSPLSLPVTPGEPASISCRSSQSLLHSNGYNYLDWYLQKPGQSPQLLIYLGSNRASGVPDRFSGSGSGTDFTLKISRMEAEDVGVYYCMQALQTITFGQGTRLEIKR
notes: also called 2.19.1
As for B8, in the assay with phospholipase A2 (PLA2) [2], binding was put at a Kd of 6.2 nM, the koff came out at 0.000115 s⁻¹ and the on-rate (kon) is 18600 M⁻¹ s⁻¹. The same molecule came in with a Response in the assay with phospholipase A2 (PLA2) [3] of 52 RU.

B9: anti-PLA2 mAb 2.15 (antibody, IgG4, V domains shown)
VH: QVQLVESGGGVVQPGRSLRLSCAASGFTFSSYGMHWVRQAPGKGLEWVAVIWYDGSNKYYADSVKGRFTISRDNSKNTLYLQMNSLRAEDTAVYYCARRDWNYAFDIWGQGTMVTVSS
VL: DIQMTQSPSSLSASVGDRVTITCRASQSISNYLNWYQQKPGKAPKFLIYAASSLQSGAPSRFSGSGSGTDFTLTISSLQPEDFATYYCQQSYSTPITFGQGTRLEIKR
On to B9, for which, in the assay with phospholipase A2 (PLA2) [1], the “IC50 of inhibition … (12-point dose curve)” value stood at 14.3 nM. In the assay with phospholipase A2 (PLA2) [2], this molecule yielded a Kd of 100 nM, a koff of 0.000902 s⁻¹ and a kon of 8880 M⁻¹ s⁻¹. Moreover, the Response with phospholipase A2 (PLA2) [3] turned out to be 37 RU.

B10: anti-PLA2 mAb 2.23 (antibody, IgG4, V domains shown)
VH: QVQLEESGGGVVQPGRSLRLSCAASGFTFSSYGMHWVRQGPGKGLEWVAVIWYDGSNKKYADSVKGRFTISRDNSKNTLYLQMNSLRAEDTAVYYCARDGPIFGVVMGYWGQGTLVTVSS
VL: DIQMTQSPSSLSASVGDRVTITCRTSQSISNYLNWFQQKPGKAPILLIYAASSLQSGVPSRFSGSGSGTDFTLTISSLQPEDFATYYCHQSYSIPITFGQGTRLEIKR
For the molecule B10, the “IC50 of inhibition … (12-point dose curve)” value with phospholipase A2 (PLA2) [1] came to 14.4 nM. In the assay with phospholipase A2 (PLA2) [2], this molecule had a Kd of 120 nM, a koff of 0.000969 s⁻¹ and an association rate constant (kon) of 8270 M⁻¹ s⁻¹. Also, the Response with phospholipase A2 (PLA2) [3] turned out to be 7 RU.
